Patent publication US20060040861A1, “Method of treating, preventing, and diagnosing prostate cancer” (priority 2004, published 2006)

Assays:
LNCaP-FGC cells = experiment: MTT assay (cell growth / viability); assay type: cell-based, human; conditions: 5 days
Protocol: (§1) DU145 (1×10^3/well), PC-3 (1×10^3/well) and LNCaP-FGC (1.5×10^3/well) cells were seeded in 96-well plates 24 hours prior to serum starvation. Cells were starved of serum for 24 hours and then incubated in the serum-free medium with or without 12.5 μg/ml leptin for 5 days. 3-(4,5-dimethylthiazol-2-yl)-2,5-diphenyl tetrazolium bromide (MTT) was added to each well to a concentration of 0.5 mg/ml. After 3-hour incubation at 37° C., cells were lysed in 50% dimethylformamide and 20% SDS at 37° C. Optical densities (O.D.) at 550 nm and 670 nm were measured by a plate reader, and differential O.D. between 550 nm and 670 nm (O.D. 550 nm minus O.D. 670 nm) were determined. Each experiment was performed in quadruplicate, and the values are reported as mean±SD.
(§2) DU145 (0.5-1.0×10^3/well), PC-3 (0.5-1.0×10^3/well), and LNCaP FGC (0.75-1.5×10^3/well) cells were seeded in 96-well plates 24 hours prior to serum starvation. Cells were starved of serum for 24 hours and then incubated in the serum-free medium with or without cytokine(s), DHT and/or doxorubicin at indicated concentrations for 5 days. MTT was added to each well to a concentration of 0.5 mg/ml. After being incubated at 37° C. for 3 hours, cells were lysed in 50% dimethylformamide and 20% SDS at 37° C. Optical densities (OD) at 550 and 670 nm were measured by a plate reader, and differential OD between 550 and 670 nm (OD 550 minus OD 670 nm) were determined. Each experiment was performed in quadruplicate, and the values were reported as mean±S.D.

PC-3 cells = experiment: MTT assay (cell growth / viability); assay type: cell-based, human; conditions: 5 days
Protocol: as §1, §2

JNK = experiment: In vitro JNK assay on lysates of treated human cancer cells; assay type: cell-based
Protocol: (§3) Eighty-percent confluent prostate cancer cells were starved in the serum-free medium for 24 hours and then treated by 12.5 μg/ml leptin or 10 μg/ml anisomycin for the indicated periods. In some experiments, cells were pretreated with SP600125 prior to cytokine stimulation as described below. Cells were washed twice with cold PBS, harvested by a scraper and centrifuged for 10 minutes at 700×g at 4° C. The pellet was homogenized in the cell lysis buffer (20 mM HEPES, pH 7.9, 300 mM NaCl, 1 mM EDTA, 15% glycerol, 0.5% NP-40, 1 mM Na3VO4, 1 μg/ml leupeptin, 5 μg/ml aprotinin, 1 μg/ml pepstatin and 1 mM PMSF) and incubated at 4° C. with gentle rocking for 30 minutes. This homogenate was centrifuged for 5 minutes at 15,000×g, and the supernatant was saved as a cell lysate and stored at −80° C. until use.
JNK activity was measured using the SAPK/JNK Assay Kit (Cell Signaling Technology Inc.) according to the manufacture's instructions. Briefly, JNK was precipitated in 250 μl of cell lysates (250 μg protein) with 2 μg of glutathione Sepharose beads immobilized by a recombinant fusion protein of the c-Jun N-terminus (1-89) and glutathione S-transferase as a JNK substrate. After being washed with the cell lysis buffer 3 times, the precipitates were incubated in 50 μl of the kinase buffer containing 100 μM ATP at 30° C. for 30 minutes. The reaction was stopped by addition of the SDS sample buffer. The N-terminal c-Jun (1-89) fusion protein was separated by SDS-polyacrylamide gel electrophoresis, and its phoshporylation was determined by Western blot analysis using anti-phospho-c-Jun (Ser-63) polyclonal antibody as described above. JNK protein levels in cell lysates were also measured by Western blot analysis using anti-JNK antibody to normalize sample variations.
(§4) Seventy-percent confluent cells were deprived of serum for 24 hours, followed by treatment with 1 μg/ml f- or g-adiponectin or 10 μg/ml anisomycin for indicated periods. After being rinsed with cold phosphate-buffered saline, cells were harvested using a scraper and collected by centrifugation at 700×g for 10 minutes at 4° C. The cell pellets were then homogenized in cell lysis buffer (20 mM HEPES, pH 7.9, 300 mM NaCl, 1 mM Na3VO4, 1 μg/ml leupeptin, 5 μg/ml aprotinin, 1 μg/ml pepstatin, and 1 mM phenylmethylsulfonyl fluoride) and rocked gently for 30 minutes at 4° C. The homogenates were centrifuged at 15,000×g for 5 minutes at 4° C., and the supernatants were saved as cell lysates and stored at −80° C. until use.
Using the stress-activated protein kinase/JNK assay kit, JNK activity was assessed with a fusion protein of the c-Jun NH2 terminus (amino acids 1 to 89) and glutathione S-transferase as a substrate according to the manufacture's instructions with some modifications as reported before (M. Onuma, et al., supra, 2003). Briefly, JNK was precipitated in cell lysates (250-500 μg of protein) with 2 μg of glutathione-Sepharose beads immobilized by the fusion protein. The precipitates were rinsed with the cell lysis buffer three times, followed by incubation in 50 μl of the kinase buffer containing 100 μM ATP at 30° C. for 30 minutes. The reaction was terminated by adding the SDS sample buffer. The substrate fusion protein was separated by SDS-polyacrylamide gel electrophoresis, and its phosphorylation by JNK was determined by Western blot analysis using anti-phospho-c-Jun (Ser-63) polyclonal antibody. To normalize sample variations, JNK protein levels were also determined by Western blot analysis using anti-JNK antibody.

c-Jun = experiment: Western blot analysis of c-Jun phosphorylation in human cancer cells; assay type: cell-based
Protocol: as §3
Cell lysates containing 100 μg of protein were electrophoresed on 10% SDS-polyacrylamide gels and electrotransferred to PVDF membranes. Following the supplier's instructions, the membranes were washed, blocked and hybridized with anti-phospho-c-Jun (Ser-63 or Ser-73) polyclonal antibody that specifically recognizes a phosphorylated form of c-Jun. Bands were visualized using a Lumiglo reagent (Cell Signaling Technology Inc.). The membranes were then stripped and re-hybridized with anti-c-Jun antibody that detects both phosphorylated and unphosphorylated forms to normalize sample variations.
SP600125 was dissolved in DMSO to make a stock solution. Eighty-percent confluent prostate cancer cells were serum-starved for 24 hours and pretreated with SP600125 at indicated concentrations for 30 minutes, followed by leptin treatment (12.5 μg/ml): 15 minutes for Western blot analysis or 20 hours for thymidine incorporation assays. DMSO-treated cells were employed as controls.
as §4
Cell lysates (100 μg of protein) were electrophoresed on 10% SDS-polyacrylamide gels and transferred to polyvinylidene difluoride membranes. […]

[1] = DU145, PC-3, LNCaP-FGC and HepG2 cells, 1.0 μg/ml

## leptin: Recombinant human leptin purchased from R&D Systems; major adipose cytokine
LNCaP-FGC cells; 12.5 μg/ml leptin, serum-free
  live cell mass (MTT): did not influence
PC-3 cells; 12.5 μg/ml leptin, serum-free
  living cells (MTT): increased living cells
JNK; DU145, 12.5 μg/ml leptin
  time of peak JNK activation after addition: 15 min
  time of return of JNK activation to the basal level: 45 min
JNK; DU145, 12.5 μg/ml leptin, up to 60 minutes
  JNK activity: stimulated JNK activity
JNK; LNCaP-FGC, 12.5 μg/ml leptin, up to 60 minutes
  JNK activity: did not influence JNK activity
JNK; PC-3, 12.5 μg/ml leptin
  time of peak JNK activation after addition: 15 min
JNK; PC-3, 12.5 μg/ml leptin, up to 60 minutes
  JNK activity: stimulated JNK activity
c-Jun; DU145 and PC-3 cells, 12.5 μg/ml leptin
  c-Jun phosphorylation on Ser-63 and Ser-73: stimulated c-Jun phosphorylation

B1: f-adiponectin: Recombinant human full-length (non-proteolytic) adiponectin, about 30-kDa polypeptide; lot mainly HMW form (protein, UniProt Q15848 1-244, looked up)
chain: MLLLGAVLLLLALPGHDQETTTQGPGVLLPLPKGACTGWMAGIPGHPGHNGAPGRDGRDGTPGEKGEKGDPGLIGPKGDIGETGVPGAEGPRGFPGIQGRKGEPGEGAYVYRSAFSVGLETYVTIPNMPIRFTKIFYNQQNHYDGSTGKFHCNIPGLYYFAYHITVYMKDVKVSLFKKDKAMLFTYDQYQENNVDQASGSVLLHLEVGDQVWLQVYGEGERNGLYADNDNDSTFTGFLLYHDTN
modifications: full-length
notes: Recombinant human full-length (non-proteolytic) adiponectin, about 30-kDa polypeptide; lot mainly HMW form
LNCaP-FGC cells; 1 μg/ml f-adiponectin, 10 nM DHT
  effect on DHT-stimulated cell growth (MTT): significantly suppressed
LNCaP-FGC cells; 1 μg/ml f-adiponectin
  effect on the conditioned medium stimulation of cell growth (MTT): drastically suppressed
  effect on the doxorubicin suppression of cell growth (MTT): enhanced the doxorubicin suppression
LNCaP-FGC cells; serum-free
  cell growth (MTT) at concentrations up to 1 μg/ml: inhibited cell growth in a dose-dependent manner
LNCaP-FGC cells; MTT
  concentration at which the inhibitory effect on cell growth saturated: 1 µg/mL
PC-3 cells; 1 μg/ml f-adiponectin
  effect on the conditioned medium stimulation of cell growth (MTT): drastically suppressed
  effect on the doxorubicin suppression of cell growth (MTT): enhanced the doxorubicin suppression
PC-3 cells; serum-free
  cell growth (MTT) at concentrations up to 1 μg/ml: inhibited cell growth in a dose-dependent manner
PC-3 cells; MTT
  concentration at which the inhibitory effect on cell growth saturated: 1 µg/mL
JNK; [1]
  time of peak JNK activation after addition: 10 min
JNK; DU145, PC-3, LNCaP-FGC and HepG2 cells, 1.0 μg/ml, up to 60 minutes
  JNK activation: further stimulated JNK activation
c-Jun; [1]
  c-Jun phosphorylation at Ser-63: augmented c-Jun phosphorylation at Ser-63
c-Jun; DU145, PC-3 and HepG2 cells, 1.0 μg/ml
  c-Jun phosphorylation at Ser-73: stimulated Ser-73 phosphorylation
c-Jun; LNCaP-FGC cells, 1.0 μg/ml
  c-Jun phosphorylation at Ser-73: quite modest
